{"source": "patent US20170114100A1", "about": "(ALBERT EINSTEIN COLLEGE OF MEDICINE, published 2017)", "molecular_target": "the molecule itself", "test": "SEC dimerization assay (FIG. 4A)", "data": [{"protein": "BAX 4MA (C62S, C126S, V121C, I136C), internally cross-linked mutant (other, internal cross-link between the introduced cysteines (V121C, I136C), reduced by DTT, also called BAX 4MA dimer; 4MA monomer) MDGSGEQPRGGGPTSSEQIMKTGALLLQGFIQDRAGRMGGEAPELALDPVPQDASTKKLSESLKRIGDELDSNMELQRMIAAVDTDSPREVFFRVAADMFSDGNFNWGRVVALFYFASKLCLKALSTKVPELIRTCMGWTLDFLRERLLGWIQDQGGWDGLLSYFGTPTWQTVTIFVAGVLTASLTIWKKMG", "values": [{"measurement": "binding result", "result": "binds"}]}]}
